Laboratory results as given in patent US20180194839A1 (Novartis, published 2018).
Where a chain is given by its changes, count along the chain named. In names and notes the source's numbering stands.

T1: recombinant human IL-17A/F heterodimer (human, UniProt Q16552 24-155; Q96PD4 31-163, limits assumed)
T1 sequence (looked up) 1: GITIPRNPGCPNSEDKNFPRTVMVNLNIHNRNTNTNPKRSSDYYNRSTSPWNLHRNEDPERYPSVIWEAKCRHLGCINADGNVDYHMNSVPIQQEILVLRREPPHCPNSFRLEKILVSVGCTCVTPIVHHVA
T1 sequence (looked up) 2: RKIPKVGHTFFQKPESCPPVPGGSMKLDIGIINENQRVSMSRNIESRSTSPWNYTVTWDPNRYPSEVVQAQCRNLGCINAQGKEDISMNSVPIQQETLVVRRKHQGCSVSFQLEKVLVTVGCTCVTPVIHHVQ

T2: recombinant human IL-17F (SEQ ID NO: 77) (human, UniProt Q96PD4 31-163)
T2 sequence: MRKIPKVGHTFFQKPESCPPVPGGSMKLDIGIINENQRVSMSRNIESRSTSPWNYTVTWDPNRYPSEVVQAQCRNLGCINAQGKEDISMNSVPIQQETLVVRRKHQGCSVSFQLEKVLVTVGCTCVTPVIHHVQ

T3: recombinant human IL-17A (SEQ ID NO: 76) (human, UniProt Q16552 24-155, limits assumed)
T3 sequence: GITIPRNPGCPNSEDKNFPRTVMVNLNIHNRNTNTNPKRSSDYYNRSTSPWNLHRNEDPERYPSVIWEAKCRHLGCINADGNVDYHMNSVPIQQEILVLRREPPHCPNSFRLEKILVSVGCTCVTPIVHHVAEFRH

T4: human IL-17A (construct not stated) (human, UniProt Q16552 24-155, limits assumed)
T4 construct: also called huIL-17A; human IL-17A biotin
T4 sequence: T3 sequence

T5: recombinant mouse IL-2 (R&D Systems 402-ML-020/CF) (mouse, UniProt P04351 21-169)
T5 construct: also called mIL-2
T5 sequence (looked up): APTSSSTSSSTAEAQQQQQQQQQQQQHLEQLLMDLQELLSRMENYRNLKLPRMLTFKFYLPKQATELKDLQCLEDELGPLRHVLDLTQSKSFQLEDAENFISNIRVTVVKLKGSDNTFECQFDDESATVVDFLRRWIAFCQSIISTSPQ

T6: recombinant mouse IL-18 (MBL Cat#B004-5) (mouse, UniProt P70380 36-192)
T6 construct: also called mIL-18
T6 sequence (looked up): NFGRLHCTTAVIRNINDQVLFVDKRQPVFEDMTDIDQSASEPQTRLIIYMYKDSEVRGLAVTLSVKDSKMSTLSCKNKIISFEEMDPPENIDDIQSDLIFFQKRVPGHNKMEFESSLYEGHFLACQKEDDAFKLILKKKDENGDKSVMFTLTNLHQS

T7: recombinant rat IL-4 (R&D Systems Cat#504-RL/CF) (rat, UniProt P20096 25-147, limits assumed)
T7 sequence (looked up): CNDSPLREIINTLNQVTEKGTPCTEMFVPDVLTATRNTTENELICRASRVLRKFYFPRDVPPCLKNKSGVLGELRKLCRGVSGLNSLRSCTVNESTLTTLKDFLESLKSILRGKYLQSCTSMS

T8: recombinant rat IL-17A (SEQ ID NO: 85) (rat, UniProt Q61453 18-150)
T8 construct: also called rratIL-17A; rIL-17A
T8 sequence: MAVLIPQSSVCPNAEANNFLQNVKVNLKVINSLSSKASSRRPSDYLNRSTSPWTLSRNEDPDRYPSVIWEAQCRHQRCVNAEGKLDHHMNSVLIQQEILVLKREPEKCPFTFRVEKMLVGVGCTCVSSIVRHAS

T9: recombinant rat IL-6 (R&D Systems Cat#506-RL-010) (rat, UniProt P20607 25-211)
T9 sequence (looked up): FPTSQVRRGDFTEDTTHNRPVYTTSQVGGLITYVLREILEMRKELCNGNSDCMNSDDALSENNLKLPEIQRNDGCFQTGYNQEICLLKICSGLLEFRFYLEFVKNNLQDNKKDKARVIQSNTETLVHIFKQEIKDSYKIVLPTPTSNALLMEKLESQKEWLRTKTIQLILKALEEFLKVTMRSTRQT

T10: recombinant rat TNFα (R&D Systems Cat#510-RT/CF) (rat, UniProt P16599 80-235)
T10 sequence (looked up): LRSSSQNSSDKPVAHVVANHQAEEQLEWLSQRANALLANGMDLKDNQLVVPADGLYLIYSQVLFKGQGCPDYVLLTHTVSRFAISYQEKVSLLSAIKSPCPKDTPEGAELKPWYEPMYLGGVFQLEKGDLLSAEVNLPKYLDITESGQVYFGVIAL

B1: XAB4 (antibody, human IgG1, kappa, V domains shown)
VH: EVQLVESGGDLVQPGGSLRLSCAASGFTFSSYWMSWVRQAPGKGLEWVANIKQDGSEKYYVDSVKGRFTISRDNAKNSLYLQMNSLRAEDTAVYYCARDRGSLYYWGQGTLVTVSS
VL: AIQLTQSPSSLSASVGDRVTITCRPSQGINWELAWYQQKPGKAPKLLIYDASSLEQGVPSRFSGSGSGTDFTLTISSLQPEDFATYYCQQFNSYPLTFGGGTKVEIKR
notes: also called MB435 N56Q
B2: XAB1 (antibody, human IgG1, kappa, V domains shown)
VH: B1 VH
VL: B1 VL with N30I, W31S, E32A, Q56N
notes: human IgG1/kappa monoclonal antibody; also called parental XAB1; XAB1 IgG

Key:
[1] = target: T1, recombinant human IL-17A/F heterodimer; experiment: cell-based or functional assay
[2] = target: T2, recombinant human IL-17F (SEQ ID NO: 77); experiment: cell-based or functional assay
[3] = target: T3, recombinant human IL-17A (SEQ ID NO: 76); experiment: cell-based or functional assay
[4] = target: T4, human IL-17A (construct not stated); experiment: competition ELISA: biotinylated huIL-17A pre-incubated with antibody, binding to coated huIL-17RA
[5] = target: T3, recombinant human IL-17A (SEQ ID NO: 76); experiment: cell-based or functional assay; remark: listed apart in the source
[6] = target: T5, recombinant mouse IL-2 (R&D Systems …); experiment: ELISA, coated cytokine, Ab 10 µg/ml
[7] = target: T6, recombinant mouse IL-18 (MBL Cat#B004-5); experiment: ELISA, coated cytokine, Ab 10 µg/ml
[8] = target: T7, recombinant rat IL-4 (R&D Systems …); experiment: ELISA, coated cytokine, Ab 10 µg/ml
[9] = target: T8, recombinant rat IL-17A (SEQ ID NO: 85); experiment: ELISA, coated cytokine, Ab 10 µg/ml
[10] = target: T9, recombinant rat IL-6 (R&D Systems …); experiment: ELISA, coated cytokine, Ab 10 µg/ml
[11] = target: T10, recombinant rat TNFα (R&D Systems …); experiment: ELISA, coated cytokine, Ab 10 µg/ml
[12] = target: recombinant rat IL-12 (R&D Systems Cat#1760-RL/CF) (rat); experiment: ELISA, coated cytokine, Ab 10 µg/ml
[13] = target: recombinant rat IL-23 (R&D Systems Cat#3136-RL-010/CF) (rat); experiment: ELISA, coated cytokine, Ab 10 µg/ml
[14] = target: T1, recombinant human IL-17A/F heterodimer; experiment: competition ELISA: huIL-17A/F pre-incubated with antibody, binding to coated huIL-17RA

Row | Binder | IC50, huIL-6 secretion by BJ cells; stimulus rhuIL-17A/F (300 pM) + rhuTNF-α (6 pM) [1] [nM] | IC50, huIL-6 secretion by BJ cells; stimulus rhuIL-17A/F (3 nM) [1] [nM] | IC50, huIL-6 secretion by BJ cells; stimulus rhuIL-17F (10 nM) + rhuTNF-α (6 pM) [2] [µM] | IC50, huIL-6 secretion by BJ cells; stimulus rhuIL-17F (30 nM) [2] [nM] | IC50, huIL-6 secretion by BJ cells; stimulus rhuIL-17A (1 nM) [3] [nM] | IC50 [4] [nM] | IC50, huIL-6 secretion by BJ cells; stimulus rhuIL-17A (0.5 nM) [5] [nM] | O.D. [6] [O.D.] | O.D. [7] [O.D.] | O.D. [8] [O.D.] | O.D. [9] [O.D.] | O.D. [10] [O.D.] | O.D. [11] [O.D.] | O.D. [12] [O.D.] | O.D. [13] [O.D.] | IC50 [14] [nM] | IC50, huIL-6 secretion by BJ cells; stimulus rhuIL-17A (30 pM) + rhuTNF-α (6 pM) [3] [nM]
1 | B1 | 0.17 | 1.68 | > 3 | > 3000 | 0.63 | 0.321 | 0.55 | 0.024 | 0.054 | 0.026 | 3.48 | 0.021 | 0.02 | 0.009 | 0.023 | 154 | 
2 | B2 | 3.83 |  | > 3 |  |  | 0.83 | 4.97 | 0.022 | 0.022 | 0.017 | 1.2 | 0 | 0.003 | -0.007 | 0.011 | 301 | 0.47
